Seven sequences from the supplement of paper PMC5998384 can be followed below.

For data set [1], the system named is HeLa Kyoto. As to the kind of experiment: melting temperature (median over replicates), in situ; higher = more thermally stable.
For data set [2], the system named is HeLa Kyoto. As to the kind of experiment: thermal stability score vs G1/S (z-score of summed log2 fold changes over temperatures); higher = more thermally stable than in G1/S.
In data set [3] the test system is HeLa Kyoto. As to the kind of experiment: solubility in G1/S (NP-40 vs SDS abundance) (log2 ratio); higher = more soluble. Conditions: cell cycle stage: G1/S.
Data set [4] concerns HeLa Kyoto. Briefly: solubility change mitosis vs G1/S (difference of NP-40 vs SDS log2 ratios) (log2 ratio difference); higher = more soluble in mitosis.
[5] abbreviates: cell cycle stage: early G1 (4.5 h after nocodazole release).
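Throughout, for melting temperature (median over replicates), in situ: HeLa Kyoto cells synchronized by double thymidine or nocodazole block, proteins quantified by TMT10plex mass spectrometry, three independent biological replicates.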
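Throughout, for solubility change mitosis vs G1/S (difference of NP-40 vs SDS log2 ratios): synchronized HeLa Kyoto cells (double thymidine block for G1/S, nocodazole release for mitosis), protein amounts in NP-40 versus SDS lysates quantified by mass spectrometry, three biological replicates.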
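Throughout, for solubility in G1/S (NP-40 vs SDS abundance): HeLa Kyoto cells arrested at G1/S by double thymidine block, proteins quantified by TMT10plex mass spectrometry in mild NP-40 versus SDS extracts, three biological replicates.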
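Throughout, for thermal stability score vs G1/S (z-score of summed log2 fold changes over temperatures): synchronized HeLa Kyoto cells, proteins quantified by TMT10plex mass spectrometry, three biological replicates, mitosis taken 0.5 h after nocodazole release, G1/S directly after double thymidine block.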

In the case of “MSLQSAQYLRQAEVLKADMTDSKLGPAEVWTSRQALQDLYQKMLVTDLEYALDKKVEQDLWNHAFKNQITTLQGQAKNRANPNRSEVQANLSLFLEAASGFYTQLLQELCTVFNVDLPCRVKSSQLGIISNKQTHTSAIVKPQSSSCSYICQHCLVHLGDIARYRNQTSQAESYYRHAAQLVPSNGQPYNQLAILASSKGDHLTTIFYYCRSIAVKFPFPAASTNLQKALSKALESRDEVKTKWGVSDFIKAFIKFHGHVYLSKSLEKLSPLREKLEEQFKRLLFQKAFNSQQLVHVTVINLFQLHHLRDFSNETEQHTYSQDEQLCWTQLLALFMSFLGILCKCPLQNESQEESYNAYPLPAVKVSMDWLRLRPRVFQEAVVDERQYIWPWLISLLNSFHPHEEDLSSISATPLPEEFELQGFLALRPSFRNLDFSKGHQGITGDKEGQQRRIRQQRLISIGKWIADNQPRLIQCENEVGKLLFITEIPELILEDPSEAKENLILQETSVIESLAADGSPGLKSVLSTSRNLSNNCDTGEKPVVTFKENIKTREVNRDQGRSFPPKEVRRDYSKGITVTKNDGKKDNNKRKTETKKCTLEKLQETGKQNVAVQVKSQTELRKTPVSEARKTPVTQTPTQASNSQFIPIHHPGAFPPLPSRPGFPPPTYVIPPPVAFSMGSGYTFPAGVSVPGTFLQPTAHSPAGNQVQAGKQSHIPYSQQRPSGPGPMNQGPQQSQPPSQQPLTSLPAQPTAQSTSQLQVQALTQQQQSPTKAVPALGKSPPHHSGFQQYQQADASKQLWNPPQVQGPLGKIMPVKQPYYLQTQDPIKLFEPSLQPPVMQQQPLEKKMKPFPMEPYNHNPSEVKVPEFYWDSSYSMADNRSVMAQQANIDRRGKRSPGVFRPEQDPVPRMPFEKSLLEKPSELMSHSSSFLSLTGFSLNQERYPNNSMFNEVYGKNLTSSSKAELSPSMAPQETSLYSLFEGTPWSPSLPASSDHSTPASQSPHSSNPSSLPSSPPTHNHNSVPFSNFGPIGTPDNRDRRTADRWKTDKPAMGGFGIDYLSATSSSESSWHQASTPSGTWTGHGPSMEDSSAVLMESLKSIWSSSMMHPGPSALEQLLMQQKQKQQRGQGTMNPPH [SMG7]”, the melting temperature in the data set with HeLa Kyoto [1] (cell cycle stage: G1/S) was 50.4 °C; with HeLa Kyoto [1] (cell cycle stage: mitosis), 49.3 °C. For the same sequence, the thermal stability score in the data set with HeLa Kyoto [2] (setting [5]) turned out to be 0.868; in the data set on HeLa Kyoto [2] (cell cycle stage: mitosis), 1.4. In addition, the “solubility in G1/S (log2)” value with HeLa Kyoto [3] amounted to 0.0703. Further, the “solubility change mitosis (log2)” value with HeLa Kyoto [4] is -0.127.
Regarding “MSLVAEAFVSQIAAAEPWPENATLYQQLKGEQILLSDNAASLAVQAFLQMCNLPIKVVCRANAEYMSPSGKVPFIHVGNQVVSELGPIVQFVKAKGHSLSDGLEEVQKAEMKAYMELVNNMLLTAELYLQWCDEATVGEITHARYGSPYPWPLNHILAYQKQWEVKRKMKAIGWGKKTLDQVLEDVDQCCQALSQRLGTQPYFFNKQPTELDALVFGHLYTILTTQLTNDELSEKVKNYSNLLAFCRRIEQHYFEDRGKGRLS [MTX2]”, the melting temperature in the data set with HeLa Kyoto [1] (cell cycle stage: G1/S) turned out to be 51.4 °C; in the data set on HeLa Kyoto [1] (cell cycle stage: mitosis) it was 52.2 °C. The results for the thermal stability score in the data set on HeLa Kyoto [2] (setting [5]) and in the data set on HeLa Kyoto [2] (cell cycle stage: mitosis) were -0.339 and -0.187, respectively. Moreover, in the data set with HeLa Kyoto [3], the “solubility in G1/S (log2)” value was determined as 0.186. Also, the “solubility change mitosis (log2)” value with HeLa Kyoto [4] is 0.0491.
“MSMEDPFFVVKGEVQKAVNTAQGLFQRWTELLQDPSTATREEIDWTTNELRNNLRSIEWDLEDLDETISIVEANPRKFNLDATELSIRKAFITSTRQVVRDMKDQMSTSSVQALAERKNRQALLGDSGSQNWSTGTTDKYGRLDRELQRANSHFIEEQQAQQQLIVEQQDEQLELVSGSIGVLKNMSQRIGGELEEQAVMLEDFSHELESTQSRLDNVMKKLAKVSHMTSDRRQWCAIAILFAVLLVVLILFLVL [STX6]”: the melting temperature in the data set with HeLa Kyoto [1] (cell cycle stage: G1/S) stood at 53.5 °C; with HeLa Kyoto [1] (cell cycle stage: mitosis), 52.9 °C. In addition, the thermal stability score with HeLa Kyoto [2] (setting [5]) was 1.56; in the data set with HeLa Kyoto [2] (cell cycle stage: mitosis), -0.616. In addition, the “solubility in G1/S (log2)” value in the data set with HeLa Kyoto [3] is -0.167. Moreover, in the data set with HeLa Kyoto [4], the “solubility change mitosis (log2)” value was -0.118.
For “MSNTTVVPSTAGPGPSGGPGGGGGGGGGGGGTEVIQVTNVSPSASSEQMRTLFGFLGKIDELRLFPPDDSPLPVSSRVCFVKFHDPDSAVVAQHLTNTVFVDRALIVVPYAEGVIPDEAKALSLLAPANAVAGLLPGGGLLPTPNPLTQIGAVPLAALGAPTLDPALAALGLPGANLNSQSLAADQLLKLMSTVDPKLNHVAAGLVSPSLKSDTSSKEIEEAMKRVREAQSLISAAIEPDKKEEKRRHSRSRSRSRRRRTPSSSRHRRSRSRSRRRSHSKSRSRRRSKSPRRRRSHSRERGRRSRSTSKTRDKKKEDKEKKRSKTPPKSYSTARRSRSASRERRRRRSRSGTRSPKKPRSPKRKLSRSPSPRRHKKEKKKDKDKERSRDERERSTSKKKKSKDKEKDRERKSESDKDVKQVTRDYDEEEQGYDSEKEKKEEKKPIETGSPKTKECSVEKGTGDSLRESKVNGDDHHEEDMDMSD [SRSF11]”, the melting temperature with HeLa Kyoto [1] (cell cycle stage: G1/S) came to 49.7 °C; in the data set with HeLa Kyoto [1] (cell cycle stage: mitosis), 50.4 °C. Also, the thermal stability score is 1.04 with HeLa Kyoto [2] (setting [5]) and 3.54 in the data set on HeLa Kyoto [2] (cell cycle stage: mitosis). Besides, in the data set with HeLa Kyoto [3], the “solubility in G1/S (log2)” value is -0.739. Besides, the “solubility change mitosis (log2)” value in the data set on HeLa Kyoto [4] turned out to be 0.175.
Turning to “MSNYSVSLVGPAPWGFRLQGGKDFNMPLTISSLKDGGKAAQANVRIGDVVLSIDGINAQGMTHLEAQNKIKGCTGSLNMTLQRASAAPKPEPVPVQKGEPKEVVKPVPITSPAVSKVTSTNNMAYNKAPRPFGSVSSPKVTSIPSPSSAFTPAHATTSSHASPSPVAAVTPPLFAASGLHANANLSADQSPSALSAGKTAVNVPRQPTVTSVCSETSQELAEGQRRGSQGDSKQQNGPPRKHIVERYTEFYHVPTHSDASKKRLIEDTEDWRPRTGTTQSRSFRILAQITGTEHLKESEADNTKKANNSQEPSPQLASSVASTRSMPESLDSPTSGRPGVTSLTAAAAFKPVGSTGVIKSPSWQRPNQGVPSTGRISNSATYSGSVAPANSALGQTQPSDQDTLVQRAEHIPAGKRTPMCAHCNQVIRGPFLVALGKSWHPEEFNCAHCKNTMAYIGFVEEKGALYCELCYEKFFAPECGRCQRKILGEVISALKQTWHVSCFVCVACGKPIRNNVFHLEDGEPYCETDYYALFGTICHGCEFPIEAGDMFLEALGYTWHDTCFVCSVCCESLEGQTFFSKKDKPLCKKHAHSVNF [PDLIM5]”, the melting temperature in the data set on HeLa Kyoto [1] (cell cycle stage: G1/S) is 52.1 °C; in the data set on HeLa Kyoto [1] (cell cycle stage: mitosis) it was 52.6 °C. Also, the thermal stability score with HeLa Kyoto [2] (setting [5]) is -0.121; with HeLa Kyoto [2] (cell cycle stage: mitosis), 0.334. In addition, the “solubility in G1/S (log2)” value in the data set with HeLa Kyoto [3] was 0.0686. In the data set with HeLa Kyoto [4], the “solubility change mitosis (log2)” value came out at 0.0095.
Take “MSPAPDAAPAPASISLFDLSADAPVFQGLSLVSHAPGEALARAPRTSCSGSGERESPERKLLQGPMDISEKLFCSTCDQTFQNHQEQREHYKLDWHRFNLKQRLKDKPLLSALDFEKQSSTGDLSSISGSEDSDSASEEDLQTLDRERATFEKLSRPPGFYPHRVLFQNAQGQFLYAYRCVLGPHQDPPEEAELLLQNLQSRGPRDCVVLMAAAGHFAGAIFQGREVVTHKTFHRYTVRAKRGTAQGLRDARGGPSHSAGANLRRYNEATLYKDVRDLLAGPSWAKALEEAGTILLRAPRSGRSLFFGGKGAPLQRGDPRLWDIPLATRRPTFQELQRVLHKLTTLHVYEEDPREAVRLHSPQTHWKTVREERKKPTEEEIRKICRDEKEALGQNEESPKQGSGSEGEDGFQVELELVELTVGTLDLCESEVLPKRRRRKRNKKEKSRDQEAGAHRTLLQQTQEEEPSTQSSQAVAAPLGPLLDEAKAPGQPELWNALLAACRAGDVGVLKLQLAPSPADPRVLSLLSAPLGSGGFTLLHAAAAAGRGSVVRLLLEAGADPTVQDSRARPPYTVAADKSTRNEFRRFMEKNPDAYDYNKAQVPGPLTPEMEARQATRKREQKAARRQREEQQQRQQEQEEREREEQRRFAALSDREKRALAAERRLAAQLGAPTSPIPDSAIVNTRRCWSCGASLQGLTPFHYLDFSFCSTRCLQDHRRQAGRPSS [ANKZF1]”: the melting temperature with HeLa Kyoto [1] (cell cycle stage: G1/S) turned out to be 49.7 °C; with HeLa Kyoto [1] (cell cycle stage: mitosis), 50.1 °C. Also, the values for the thermal stability score in the data set on HeLa Kyoto [2] (setting [5]) and in the data set with HeLa Kyoto [2] (cell cycle stage: mitosis) were 0.638 and 1.02, respectively. The “solubility in G1/S (log2)” value with HeLa Kyoto [3] turned out to be 0.0804. Further, in the data set with HeLa Kyoto [4], the “solubility change mitosis (log2)” value is -0.104.
In the case of “MSPKRIAKRRSPPADAIPKSKKVKVSHRSHSTEPGLVLTLGQGDVGQLGLGENVMERKKPALVSIPEDVVQAEAGGMHTVCLSKSGQVYSFGCNDEGALGRDTSVEGSEMVPGKVELQEKVVQVSAGDSHTAALTDDGRVFLWGSFRDNNGVIGLLEPMKKSMVPVQVQLDVPVVKVASGNDHLVMLTADGDLYTLGCGEQGQLGRVPELFANRGGRQGLERLLVPKCVMLKSRGSRGHVRFQDAFCGAYFTFAISHEGHVYGFGLSNYHQLGTPGTESCFIPQNLTSFKNSTKSWVGFSGGQHHTVCMDSEGKAYSLGRAEYGRLGLGEGAEEKSIPTLISRLPAVSSVACGASVGYAVTKDGRVFAWGMGTNYQLGTGQDEDAWSPVEMMGKQLENRVVLSVSSGGQHTVLLVKDKEQS [RCC1]”, the melting temperature turned out to be 48 °C in the data set with HeLa Kyoto [1] (cell cycle stage: G1/S) and 49.1 °C in the data set with HeLa Kyoto [1] (cell cycle stage: mitosis). Also, the thermal stability score in the data set with HeLa Kyoto [2] (setting [5]) stood at 1.88; with HeLa Kyoto [2] (cell cycle stage: mitosis), 3.04. Further, in the data set on HeLa Kyoto [3], the “solubility in G1/S (log2)” value was -0.0854. For the same sequence, the “solubility change mitosis (log2)” value with HeLa Kyoto [4] turned out to be 0.0534.
